Molecular target: potato ADP-glucose pyrophosphorylase (AGPase) small subunit, wild type (potato (S. tuberosum)) (UniProt P23509)
Experiment: native gel or EMSA

Sequence of potato ADP-glucose pyrophosphorylase (AGPase) small subunit, wild type (potato (S. tuberosum)) (P23509 73-521): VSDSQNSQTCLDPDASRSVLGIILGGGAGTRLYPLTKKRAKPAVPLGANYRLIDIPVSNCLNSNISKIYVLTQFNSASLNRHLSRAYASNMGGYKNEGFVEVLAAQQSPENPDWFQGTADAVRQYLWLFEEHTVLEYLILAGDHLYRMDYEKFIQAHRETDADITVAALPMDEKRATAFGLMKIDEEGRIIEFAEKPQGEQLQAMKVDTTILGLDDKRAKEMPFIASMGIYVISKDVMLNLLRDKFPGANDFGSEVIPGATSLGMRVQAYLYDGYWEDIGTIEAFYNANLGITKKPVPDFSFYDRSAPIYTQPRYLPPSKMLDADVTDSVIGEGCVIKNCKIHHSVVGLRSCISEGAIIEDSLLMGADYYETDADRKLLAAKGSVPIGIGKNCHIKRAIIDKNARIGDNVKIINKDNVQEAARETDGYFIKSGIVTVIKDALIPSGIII

percent in the form of heterotetramers | percent of total band intensity in the dimer band | Substance
90% | – | potato ADP-glucose pyrophosphorylase (AGPase) large subunit, E370G mutant (enzyme)
– | 40% | potato ADP-glucose pyrophosphorylase (AGPase) large subunit, E370R mutant (enzyme)
